Biological target: VipB (Vibrio cholerae)
Test: cryo-EM structure

## VipA (natural protein)
  stoichiometry N: 1

Source: paper PMC4359589
